T1: canine IL-31 protein (Canine_IL31)
T1 chain: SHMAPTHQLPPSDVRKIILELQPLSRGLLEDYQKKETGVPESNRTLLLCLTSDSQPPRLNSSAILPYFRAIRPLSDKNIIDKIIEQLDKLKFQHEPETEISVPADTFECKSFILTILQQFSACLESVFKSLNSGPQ

B1: Feline 15H05 1.1 FW1_2 (antibody, V domains shown)
VH: QVLLVQSGAEVRTPGASVKIFCKASGYSFTSYTIHWLRQAPAQGLEWMGNINPTSGYTENNQRFKDRLTLTADTSTNTAYMELSSLRSADTAMYYCARWGFKYDGEWSFDVWGAGTTVTVSS
VL: DIQMNQSPSSLSASLGDTITVTCRASQGISIWLSWYQQKPGNIPKVLINKASNLHIGVPSRFSGSGSGTDFTLTISSLEPEDAATYYCLQSQTYPLTFGGGTKLEIK
B2: Feline 15H05 1.2 (antibody, V domains shown)
VH: QVLLVQSGAEVRTPGASVKIFCKASGYSFTSYTIHWLRQAPAQGLEWMGNINPTSGYTENNQRFKDRLTLTADTSTNTAYMELSSLRSADTAMYYCARWGFKYDGEWSFDVWGAGTTVTVSS
VL: EITMTQSPGSLAGSPGQQVTMNCRASQGISIWLSWYQQKPGQHPKLLIYKASNLHIGVPDRFSGSGSGTDFTLTISNLQAEDVASYYCLQSQTYPLTFGGGTKLEIK
B3: Feline 15H05 VH2 mouse VL (antibody, V domains shown)
VH: QVLLVQSGAEVRTPGASVKIFCKASGYGFTSYTIHWVRQSPAQGLEWMGNINPTSGYTENNQRFKDRLTLTADTSTNTAYMELSSLRSADTAMYYCARWGFKYDGEWSFDVWGAGTTVTVSS
VL: DIQMNQSPSSLSASLGDTITVTCRASQGISIWLSWYQQKPGNIPKVLINKASNLHIGVPPRFSGSGSGTHFTLTITSLQPEDIATYYCLQSQTYPLTFGGGTKLEIN
B4: Feline 15H05 3.2 (antibody, V domains shown)
VH: QVLLVQSGAEVRKPGASVKIFCKASGYSFTSYTIHWLRQAPEQGLEWMGNINPTSGYTENNQRFKDRLTLTADTSTNTAYMELSSLRSADTAMYYCARWGFKYDGEWSFDVWGAGTTVTVSS
VL: EITMTQSPGSLAGSPGQQVTMNCRASQGISIWLSWYQQKPGQHPKLLIYKASNLHIGVPDRFSGSGSGTDFTLTISNLQAEDVASYYCLQSQTYPLTFGGGTKLEIK
B5: Feline 15H05 1.1 FW1 (antibody, V domains shown)
VH: QVLLVQSGAEVRTPGASVKIFCKASGYSFTSYTIHWLRQAPAQGLEWMGNINPTSGYTENNQRFKDRLTLTADTSTNTAYMELSSLRSADTAMYYCARWGFKYDGEWSFDVWGAGTTVTVSS
VL: DIQMNQSPSSLSASLGDTITVTCRASQGISIWLSWYQQKPGKVPKLLIYKASNLHIGVPSRFSGSGSGTDFTLTISSLEPEDAATYYCLQSQTYPLTFGGGTKLEIK
B6: Feline 15H05 VH1 mouse VL (antibody, V domains shown)
VH: QVLLVQSGAEVRTPGASVKIFCKASGYSFTSYTIHWLRQAPAQGLEWMGNINPTSGYTENNQRFKDRLTLTADTSTNTAYMELSSLRSADTAMYYCARWGFKYDGEWSFDVWGAGTTVTVSS
VL: DIQMNQSPSSLSASLGDTITVTCRASQGISIWLSWYQQKPGNIPKVLINKASNLHIGVPPRFSGSGSGTHFTLTITSLQPEDIATYYCLQSQTYPLTFGGGTKLEIN
B7: Feline 15H05 1.1 FW1_3 (antibody, V domains shown)
VH: QVLLVQSGAEVRTPGASVKIFCKASGYSFTSYTIHWLRQAPAQGLEWMGNINPTSGYTENNQRFKDRLTLTADTSTNTAYMELSSLRSADTAMYYCARWGFKYDGEWSFDVWGAGTTVTVSS
VL: DIQMNQSPSSLSASLGDTITVTCRASQGISIWLSWYQQKPGKVPKLLIYKASNLHIGVPPRFSGSGSGTHFTLTITSLQPEDIATYYCLQSQTYPLTFGGGTKLEIK
B8: Feline 15H05 2.2 (antibody, V domains shown)
VH: QVLLVQSGAEVRTPGASVKIFCKASGYGFTSYTIHWVRQSPAQGLEWMGNINPTSGYTENNQRFKDRLTLTADTSTNTAYMELSSLRSADTAMYYCARWGFKYDGEWSFDVWGAGTTVTVSS
VL: EITMTQSPGSLAGSPGQQVTMNCRASQGISIWLSWYQQKPGQHPKLLIYKASNLHIGVPDRFSGSGSGTDFTLTISNLQAEDVASYYCLQSQTYPLTFGGGTKLEIK
B9: Feline 15H05 1.1 FW3 (antibody, V domains shown)
VH: QVLLVQSGAEVRTPGASVKIFCKASGYSFTSYTIHWLRQAPAQGLEWMGNINPTSGYTENNQRFKDRLTLTADTSTNTAYMELSSLRSADTAMYYCARWGFKYDGEWSFDVWGAGTTVTVSS
VL: EIQMTQSPSSLSASPGDRVTITCRASQGISIWLSWYQQKPGKVPKLLIYKASNLHIGVPPRFSGSGSGTHFTLTITSLQPEDIATYYCLQSQTYPLTFGGGTKLEIK
B10: Feline 15H05 3.1 (antibody, V domains shown)
VH: QVLLVQSGAEVRKPGASVKIFCKASGYSFTSYTIHWLRQAPEQGLEWMGNINPTSGYTENNQRFKDRLTLTADTSTNTAYMELSSLRSADTAMYYCARWGFKYDGEWSFDVWGAGTTVTVSS
VL: EIQMTQSPSSLSASPGDRVTITCRASQGISIWLSWYQQKPGKVPKLLIYKASNLHIGVPSRFSGSGSGTDFTLTISSLEPEDAATYYCLQSQTYPLTFGGGTKLEIK
B11: Feline 15H05 1.3 (antibody, V domains shown)
VH: QVLLVQSGAEVRTPGASVKIFCKASGYSFTSYTIHWLRQAPAQGLEWMGNINPTSGYTENNQRFKDRLTLTADTSTNTAYMELSSLRSADTAMYYCARWGFKYDGEWSFDVWGAGTTVTVSS
VL: EVVLTQSSAFLSRTLKEKATITCRASQGISIWLSWYQQKPNQAPKLLVKKASNLHIGAPSRFSGSGSGTDFTLTISSPEPEDAATYYCLQSQTYPLTFGGGTKLGDQ
B12: Feline 15H05 VH3 mouse VL (antibody, V domains shown)
VH: QVLLVQSGAEVRKPGASVKIFCKASGYSFTSYTIHWLRQAPEQGLEWMGNINPTSGYTENNQRFKDRLTLTADTSTNTAYMELSSLRSADTAMYYCARWGFKYDGEWSFDVWGAGTTVTVSS
VL: DIQMNQSPSSLSASLGDTITVTCRASQGISIWLSWYQQKPGNIPKVLINKASNLHIGVPPRFSGSGSGTHFTLTITSLQPEDIATYYCLQSQTYPLTFGGGTKLEIN
B13: Feline 15H05 2.1 (antibody, V domains shown)
VH: QVLLVQSGAEVRTPGASVKIFCKASGYGFTSYTIHWVRQSPAQGLEWMGNINPTSGYTENNQRFKDRLTLTADTSTNTAYMELSSLRSADTAMYYCARWGFKYDGEWSFDVWGAGTTVTVSS
VL: EIQMTQSPSSLSASPGDRVTITCRASQGISIWLSWYQQKPGKVPKLLIYKASNLHIGVPSRFSGSGSGTDFTLTISSLEPEDAATYYCLQSQTYPLTFGGGTKLEIK
B14: Feline 15H05 1.1 FW2 (antibody, V domains shown)
VH: QVLLVQSGAEVRTPGASVKIFCKASGYSFTSYTIHWLRQAPAQGLEWMGNINPTSGYTENNQRFKDRLTLTADTSTNTAYMELSSLRSADTAMYYCARWGFKYDGEWSFDVWGAGTTVTVSS
VL: EIQMTQSPSSLSASPGDRVTITCRASQGISIWLSWYQQKPGNIPKVLINKASNLHIGVPSRFSGSGSGTDFTLTISSLEPEDAATYYCLQSQTYPLTFGGGTKLEIK
B15: Feline 15H05 1.1 FW2_3 (antibody, V domains shown)
VH: QVLLVQSGAEVRTPGASVKIFCKASGYSFTSYTIHWLRQAPAQGLEWMGNINPTSGYTENNQRFKDRLTLTADTSTNTAYMELSSLRSADTAMYYCARWGFKYDGEWSFDVWGAGTTVTVSS
VL: EIQMTQSPSSLSASPGDRVTITCRASQGISIWLSWYQQKPGNIPKVLINKASNLHIGVPPRFSGSGSGTHFTLTITSLQPEDIATYYCLQSQTYPLTFGGGTKLEIK
B16: Feline 15H05 1.1 (antibody, V domains shown)
VH: QVLLVQSGAEVRTPGASVKIFCKASGYSFTSYTIHWLRQAPAQGLEWMGNINPTSGYTENNQRFKDRLTLTADTSTNTAYMELSSLRSADTAMYYCARWGFKYDGEWSFDVWGAGTTVTVSS
VL: EIQMTQSPSSLSASPGDRVTITCRASQGISIWLSWYQQKPGKVPKLLIYKASNLHIGVPSRFSGSGSGTDFTLTISSLEPEDAATYYCLQSQTYPLTFGGGTKLEIK
B17: Feline_11E12 1.1_K46Q (antibody, V domains shown)
VH: QVLLVQSGAEVKKPGASVKIFCKASGYSFTYYDINWLRQAPEQGLEWMGWIFPGDGGTKYNETFKGRLTLTADTSTNTVYMELSSLRSADTAMYYCARGGTSVIRDAMDYWGQGALVTVSS
VL: EIQMTQSPSSLSASPGDRVTITCRASESVDNYGISFMHWYQQKPGQVPKLLIYRASNLESGVPSRFSGSGSGTDFTLTISSLEPEDAATYYCQQSNKDPLTFGQGT
B18: Feline 11E12 1.1 FW2 (antibody, V domains shown)
VH: QVLLVQSGAEVKKPGASVKIFCKASGYSFTYYDINWLRQAPEQGLEWMGWIFPGDGGTKYNETFKGRLTLTADTSTNTVYMELSSLRSADTAMYYCARGGTSVIRDAMDYWGQGALVTVSS
VL: EIQMTQSPSSLSASPGDRVTITCRASESVDNYGISFMHWYQQKPGQPPKLLIYRASNLESGVPSRFSGSGSGTDFTLTISSLEPEDAATYYCQQSNKDPLTFGQGT
B19: Feline 11E12 1.1 (antibody, V domains shown)
VH: QVLLVQSGAEVKKPGASVKIFCKASGYSFTYYDINWLRQAPEQGLEWMGWIFPGDGGTKYNETFKGRLTLTADTSTNTVYMELSSLRSADTAMYYCARGGTSVIRDAMDYWGQGALVTVSS
VL: EIQMTQSPSSLSASPGDRVTITCRASESVDNYGISFMHWYQQKPGKVPKLLIYRASNLESGVPSRFSGSGSGTDFTLTISSLEPEDAATYYCQQSNKDPLTFGQGT

Target: T1, canine IL-31 protein (Canine_IL31)
Experiment: Biacore

Point of comparison: B13, Kd 1.65 nM. Against it:
- B1 — 6.3-fold lower, 0.263 nM
- B2 — 2.1-fold higher, 3.48 nM
- B3 — within 1.5-fold, 2.22 nM
- B4 — 8.1-fold lower, 0.204 nM
- B5 — 490-fold higher, 813 nM
- B6 — 670-fold lower, 0.00246 nM
- B7 — 380-fold lower, 0.00436 nM
- B8 — 4.2-fold lower, 0.393 nM
- B9 — 13-fold lower, 0.13 nM
- B10 — 2.1-fold lower, 0.795 nM
- B11 — 3.9-fold higher, 6.38 nM
- B12 — 620-fold lower, 0.00264 nM
- B14 — 3800-fold lower, 0.000431 nM
- B15 — 130-fold higher, 214 nM
- B16 — 330-fold lower, 0.00504 nM
- B17 — within 1.5-fold, 1.91 nM
- B18 — 4.3-fold higher, 7.02 nM
- B19 — 2.2-fold lower, 0.764 nM
